Data from patent publication US20110045570.

Experiments:
[1] = biological target: T1, N-carbobenzoxy-Pro-citrulline-p-nitroanilide
T1 chain: P

[2] = biological target: T2, N-carboxybenzoxy-Phe-Val-Arg-p-nitroanilide
T2 chain: FVR

[3] = biological target: T3, N-glutaryl-Ala-Ala-Pro-Leu-p-nitroanilide
T3 chain: AAPL

[4] = biological target: T4, N-methoxysuccinyl-Ala-Ile-Pro-Met-p-nitroanilide
T4 chain: AIPM

[5] = biological target: T5, N-p-tosyl-Gly-Pro-Lys-p-nitroanilide
T5 chain: GPK

[6] = biological target: T6, N-succinyl-Ala-Ala-Ala-p-nitroanilide
T6 chain: AAA

[7] = biological target: T7, N-succinyl-Ala-Ala-Pro-Met-p-nitroanilide
T7 chain: AAPM

[8] = biological target: T8, N-succinyl-Ala-Ala-Pro-Phe-p-nitroanilide
T8 chain: AAPF

[9] = biological target: T9, N-succinyl-Ala-Ala-Val-Ala-p-nitroanilide
T9 chain: AAVA

[10] = biological target: T10, N-succinyl-Ala-Ala-p-nitroanilide
T10 chain: AA

[11] = biological target: T11, N-succinyl-Gly-Gly-Phe-p-nitroanilide
T11 chain: GGF

[12] = biological target: T12, butyroxycarboxy-Leu-Ser-Thr-Arg-p-nitroanilide
T12 chain: LSTR

B1: alkaline protease ALTP (protein)
chain: AQSTPWGVTRVQAPNVWNRGFTGSGVRVAVLDTGIHSSHEDLTVSGGYSVFGDSPYNDVQGHGTHVAGTIAARNNSVGVIGVAYNAQLYAVKVLNNQGSGTLAGIAQGIEWARQNNMHVINMSLGGTSGSTTLQNAVNAAYNAGILVVAAAGNSGNSAGTGDNVGFPARYPNAMAVAATTSGNVRASFSSTGPAVEIAAPGQDINSTYPTNTYRSLNGTSMAAPHVAGVAALLKSARPAVTAAGIRNAMNSTALNLGNSNWYGNGLVRANNALDMVLSY
In the case of B1, the “activity to synthetic substrate (p-nitroaniline liberated)” value (“activity … (p-nitroaniline liberated)” for short) [1] is reported as “It showed activity to ... N-carbobenzoxy-Pro-citrulline-p-nitroanilide (CBZ-Pro-Cit)”, the “activity … (p-nitroaniline liberated)” value [2] is reported as “It showed activity to ... N-carboxybenzoxy-Phe-Val-Arg-p-nitroanilide (Z-FVR)” and the Relative activity (%) [3] is reported as 91%. The Relative activity (%) [4] was 90%, the “activity … (p-nitroaniline liberated)” value [5] was “It showed activity to ... N-p-tosyl-Gly-Pro-Lys-p-nitroanilide (To-GPK)” and the “activity … (p-nitroaniline liberated)” value [6] was “It showed activity to ... N-succinyl-Ala-Ala-Ala-p-nitroanilide (AAA)”. For the same protein, the Relative activity (%) [7] was 74%, the Relative activity (%) [8] was 100% and the Relative activity (%) [9] was 4.6%. For the same protein, the “activity … (p-nitroaniline liberated)” value [10] was “It showed activity to ... N-succinyl-Ala-Ala-p-nitroanilide (AA)”, the “activity … (p-nitroaniline liberated)” value [11] was “It showed activity to ... N-succinyl-Gly-Gly-Phe-p-nitroanilide (GGF)” and the “initial cleavage site (LC/MS/MS of digestion fragments)” value (acidic insulin B-chain) was “alkaline protease ALTP of the invention first cleaves Leu-Tyr”. For the same protein, the “peptide bonds cleaved within 24 hours (300 ng enzyme, LC/MS/MS)” value (acidic insulin B-chain) was 26 peptide bonds of 29 peptide bonds except Phe-Val and Thr-Pro-Lys bonds are cleaved within 24 hours and the “activity … (p-nitroaniline liberated)” value [12] was “It showed activity to, besides the foregoing synthetic substrates, butyroxycarboxy-Leu-Ser-Thr-Arg-p-nitroanilide (LSTR)”.
